The data set concerns the molecule itself. Kind of data set: negative stain electron microscopy; Cp149 assembly reaction, 50 mM HEPES, 300 mM NaCl, 10 uM dimer, no CpAM.

B1: Hepatitis B virus core protein assembly domain, Cp149 (domain or fragment)
chain: MDIDPYKEFGATVELLSFLPSDFFPSVRDLLDTAAALYRDALESPEHCSPHHTALRQAILCWGDLMTLATWVGTNLEDPASRDLVVSYVNTNVGLKFRQLLWFHISCLTFGRETVLEYLVSFGVWIRTPPAYRPPNAPILSTLPETTVV
notes: Hepatitis B virus subtype adyw core protein (Cp), assembly domain: the first 149 residues of the 183-residue protein; Purified as a homodimer; Dimers were assembled into capsids at 10 uM dimer in 300 mM NaCl, 50 mM HEPES pH 7.5; The apo capsid comparator PDB 1QGT is cited without its construct being named; also called purified dimeric assembly domain; apo-capsids; source: E. coli, purified by …
Take B1: the binding result is recorded as “binds”.

(Values after paper PMC5788503, “Hepatitis B virus core protein allosteric modulators can distort and disrupt intact capsids” (eLife, 2018).)
